Ends that are not written are not given here.

The text below walks through data of patent US20110015138A1 (GENUS ONCOLOGY, published 2011).

Assay [1] addresses T1, GST-STAT3 (N-terminal; amino acids 1-257) (UniProt P40763 1-257).
T1 construct: range 1-257; The legend names it GST-MUC1-CD, but the text and the end of the legend speak of STAT3 deletion mutants / GST-STAT3 fusion proteins; also called dimerization domain; printed in the legend as GST-MUC1-CD (N-terminal: amino acids 1-257); not shown: glutathione S-transferase (GST) fusion moiety
Put plainly: GST-STAT3 deletion mutants on glutathione beads incubated with purified MUC1-CD, immunoblot anti-MUC1-C. How it is done:
(§1) FIGS. 9A-D: MUC1-C binds directly to the STAT3 DBD. (FIG. 9A) Lysates from ZR-75-1 (left) and MCF-7 (right) cells were subjected to immunoprecipitation with anti-STAT3 or a control IgG. The precipitates were immunoblotted with the indicated antibodies. (FIG. 9B) Lysates from ZR-75-1 cells were incubated with GST and GST-MUC1-CD bound to glutathione beads. The adsorbates were immunoblotted with anti-STAT3 Input of the GST and GST-MUC1-CD proteins was assessed by Coomassie blue staining. (FIG. 9C) Amino acid sequence of the MUC1 cytoplasmic domain is shown with the indicated phosphorylation and binding sites. GST, GST-MUC1-CD, GST-MUC1-CD (1-45) and GST-MUC1-CD (46-72) bound to glutathione beads were incubated with purified recombinant STAT3. The adsorbates were immunoblotted with anti-STAT3. Input of the GST and GST-MUC1-CD fusion proteins was assessed by Coomassie blue staining. (FIG. 9D) Structure of STAT3. GST, GST-STAT3 (full length; amino acids 1-770), […], […] and […] bound to glutathione beads were incubated with purified MUC1-CD. Adsorbates were immunoblotted with anti-MUC1-C. Input of the GST and GST-STAT3 fusion proteins was assessed by Coomassie blue staining.
(§2) MUC1-C directly interacts with STAT3. […]
In general terms: A western blot detects proteins with antibodies after separation by electrophoresis.

Assay [2] addresses T2, GST-STAT3 (C-terminal; amino acids 514-770) (UniProt P40763 514-770).
T2 construct: range 514-770; The legend names it GST-MUC1-CD, but the text and the end of the legend speak of STAT3 deletion mutants / GST-STAT3 fusion proteins; also called printed in the legend as GST-MUC1-CD (C-terminal); not shown: glutathione S-transferase (GST) fusion moiety
Described as above. How it is done: as §1, §2

Assay [3] has as its target T3, GST-IκBα (UniProt P25963 1-317).
T3 construct: Bought (Millipore, Billerica, Mass.); not shown: glutathione S-transferase (GST) fusion moiety
T3 sequence (looked up): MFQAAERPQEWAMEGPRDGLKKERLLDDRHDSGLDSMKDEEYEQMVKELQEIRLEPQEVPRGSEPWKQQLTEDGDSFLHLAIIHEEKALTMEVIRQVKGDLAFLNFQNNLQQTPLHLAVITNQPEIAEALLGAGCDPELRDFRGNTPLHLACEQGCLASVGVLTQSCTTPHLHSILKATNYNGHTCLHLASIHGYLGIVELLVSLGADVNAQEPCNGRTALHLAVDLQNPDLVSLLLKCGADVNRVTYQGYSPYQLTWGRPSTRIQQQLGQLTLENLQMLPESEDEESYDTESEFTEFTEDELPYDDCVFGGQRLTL
Put plainly: GST pull-down of purified p65(1-180), immunoblot anti-p65.

Assay [4] addresses T4, purified recombinant NF-κB p65 (UniProt Q04206 1-551, limits assumed).
T4 construct: also called purified NF-κB p65
Put plainly: GST pull-down of purified recombinant p65, immunoblot anti-p65.

Assay [5] deals with purified recombinant STAT3 (UniProt P40763 1-770, limits assumed). Put plainly: GST pull-down of purified recombinant STAT3, immunoblot anti-STAT3. As for the experimental part:
as §1, §2

The target in assay [6] is T5, STAT3 (in cells / cell lysates) (human, UniProt P40763 2-770).
T5 construct: Endogenous protein of the cell lines
Put plainly: co-immunoprecipitation with anti-STAT3 from ZR-75-1 and MCF-7 cell lysates, immunoblot anti-MUC1-C. How it is done:
as §1, §2

The target of assay [7] is T6, NF-κB p65 (in cells / cell lysates) (human, UniProt Q04206 1-551).
T6 construct: Endogenous protein of the cell lines
The assay can be described thus: co-immunoprecipitation with anti-p65 from ZR-75-1, MCF-7 and U-937/MUC1-C cell lysates, immunoblot anti-MUC1-C. How it is done: Immunoprecipitation and immunoblotting. Lysates from sub-confluent cells were prepared as described (Ren et al., 2004). Soluble proteins were precipitated with anti-NF-κB p65 (Santa Cruz Biotechnology, Santa Cruz, Calif.). […] Immune complexes were detected with horseradish peroxidase-conjugated secondary antibodies (GE Healthcare Biosciences, Piscataway, N.J.) and enhanced chemiluminescence (GE Healthcare).
MUC1-C associates with NF-κB p65. To determine whether MUC1 interacts with NF-κB, anti-NF-κB p65 precipitates from ZR-75-1 breast cancer cells were immunoblotted with an antibody against the MUC1-C subunit cytoplasmic domain. […] Similar findings were obtained with lysates from MCF-7 breast cancer cells, which also overexpress endogenous MUC1 (FIG. 1B). To determine whether the MUC1-N subunit is necessary for the association, studies were performed on U-937 cells that stably express exogenous MUC1-C and not MUC1-N (Agata et al., 2008).

purified recombinant STAT3, sequence (P40763 whole entry): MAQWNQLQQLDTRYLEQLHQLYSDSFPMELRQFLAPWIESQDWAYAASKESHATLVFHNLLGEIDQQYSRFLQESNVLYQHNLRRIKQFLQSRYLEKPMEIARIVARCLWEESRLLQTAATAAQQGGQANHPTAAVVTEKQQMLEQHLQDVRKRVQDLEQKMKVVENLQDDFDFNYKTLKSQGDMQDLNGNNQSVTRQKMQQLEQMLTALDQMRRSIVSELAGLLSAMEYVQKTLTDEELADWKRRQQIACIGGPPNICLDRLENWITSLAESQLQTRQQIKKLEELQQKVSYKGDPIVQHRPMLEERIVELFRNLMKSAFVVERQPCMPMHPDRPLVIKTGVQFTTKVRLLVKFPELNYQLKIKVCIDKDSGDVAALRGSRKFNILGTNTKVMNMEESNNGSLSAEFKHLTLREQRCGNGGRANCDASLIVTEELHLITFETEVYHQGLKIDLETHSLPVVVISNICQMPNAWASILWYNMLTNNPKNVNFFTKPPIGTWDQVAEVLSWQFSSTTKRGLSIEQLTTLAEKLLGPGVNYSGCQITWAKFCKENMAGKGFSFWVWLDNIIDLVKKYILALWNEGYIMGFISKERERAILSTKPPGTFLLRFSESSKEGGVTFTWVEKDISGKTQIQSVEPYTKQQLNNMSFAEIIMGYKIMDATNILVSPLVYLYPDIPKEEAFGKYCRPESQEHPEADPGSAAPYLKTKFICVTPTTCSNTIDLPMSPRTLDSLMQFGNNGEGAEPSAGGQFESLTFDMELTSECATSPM
T1 sequence (P40763 1-257): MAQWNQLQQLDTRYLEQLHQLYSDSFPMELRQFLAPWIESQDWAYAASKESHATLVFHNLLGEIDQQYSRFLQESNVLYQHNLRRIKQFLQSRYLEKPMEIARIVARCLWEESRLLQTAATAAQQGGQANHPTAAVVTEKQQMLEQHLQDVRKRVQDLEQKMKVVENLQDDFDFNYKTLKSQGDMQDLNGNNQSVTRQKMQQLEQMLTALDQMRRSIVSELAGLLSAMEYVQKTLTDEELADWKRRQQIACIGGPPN
T5 sequence (P40763 2-770 limits assumed): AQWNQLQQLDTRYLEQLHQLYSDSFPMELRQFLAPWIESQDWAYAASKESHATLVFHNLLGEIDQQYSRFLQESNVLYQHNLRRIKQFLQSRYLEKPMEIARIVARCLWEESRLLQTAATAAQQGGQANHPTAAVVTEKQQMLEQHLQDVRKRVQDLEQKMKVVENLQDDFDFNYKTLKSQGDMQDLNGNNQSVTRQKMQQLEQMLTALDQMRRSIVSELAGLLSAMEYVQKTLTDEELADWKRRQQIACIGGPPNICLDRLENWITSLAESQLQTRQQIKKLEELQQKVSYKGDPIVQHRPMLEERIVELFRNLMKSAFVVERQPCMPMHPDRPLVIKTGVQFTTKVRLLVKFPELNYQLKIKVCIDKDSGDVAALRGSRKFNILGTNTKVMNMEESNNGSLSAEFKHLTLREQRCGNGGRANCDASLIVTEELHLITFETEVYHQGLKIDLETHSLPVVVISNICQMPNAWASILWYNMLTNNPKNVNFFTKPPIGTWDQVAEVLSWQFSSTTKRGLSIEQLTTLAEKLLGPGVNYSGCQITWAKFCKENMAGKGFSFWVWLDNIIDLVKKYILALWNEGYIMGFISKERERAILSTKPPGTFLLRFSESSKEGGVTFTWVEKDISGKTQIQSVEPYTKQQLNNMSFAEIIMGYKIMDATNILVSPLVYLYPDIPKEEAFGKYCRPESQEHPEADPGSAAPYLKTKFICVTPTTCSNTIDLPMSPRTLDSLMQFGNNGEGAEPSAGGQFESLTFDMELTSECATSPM
T2 sequence (P40763 514-770): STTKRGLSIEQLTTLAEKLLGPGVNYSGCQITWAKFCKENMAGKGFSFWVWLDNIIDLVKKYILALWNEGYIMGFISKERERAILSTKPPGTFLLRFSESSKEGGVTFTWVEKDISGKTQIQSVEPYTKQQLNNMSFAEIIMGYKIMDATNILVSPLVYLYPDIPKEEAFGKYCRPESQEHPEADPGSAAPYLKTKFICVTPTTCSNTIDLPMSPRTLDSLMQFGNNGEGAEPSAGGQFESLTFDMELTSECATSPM

B1: MUC1-CD (purified, GST moiety removed with thrombin) (other)
chain: CQCRRKNYGQLDIFPARDTYHPMSEYPTYHTHGRYVPPSSTDRSPYEKVSAGNGGSSLSYTNPAVAATSANL
notes: also called purified MUC1-CD; MUC1-C cytoplasmic domain
With B1, the binding result in assay [1] and in assay [2] was “no binding” each time.

B2: p65(1-180) (other, UniProt Q04206 1-180, looked up)
chain: MDELFPLIFPAEPAQASGPYVEIIEQPKQRGMRFRYKCEGRSAGSIPGERSTDTTKTHPTIKINGYTGPGTVRISLVTKDPPHRPHPHELVGKDCRDGFYEAELCPDRCIHSFQNLGIQCVKKRDLEQAISQRIQTNNNPFQVPIEEQRGDYDLNAVRLCFQVTVRDPSGRPLRLPPVLS
notes: range 1-180; Purified deletion mutant; also called purified p65(1-180)
Consider B2, for which the binding result in assay [3] was “no binding”.

B3: GST-MUC1-CD(1-45) (other)
chain: CQCRRKNYGQLDIFPARDTYHPMSEYPTYHTHGRYVPPSSTDRSP
modifications: cysteine pairing not given here; also: GST fusion
notes: Deletion mutant of GST-MUC1-CD; residues counted on the 72 amino acid cytoplasmic domain; not shown: glutathione S-transferase (GST) fusion moiety
For B3, the binding result in assay [4] and in assay [5] was “no binding” in each case.

B4: MUC1 C-terminal subunit (MUC1-C), in cells (receptor)
chain: SVVVQLTLAFREGTINVHDVETQFNQYKTEAASRYNLTISDVSVSDVPFPFSAQSGAGVPGWGIALLVLVCVLVALAIVYLIALAVCQCRRKNYGQLDIFPARDTYHPMSEYPTYHTHGRYVPPSSTDRSPYEKVSAGNGGSSLSYTNPAVAATSANL
notes: Endogenous MUC1-C in lysates of ZR-75-1, MCF-7 and MCF-10A cells, or exogenous MUC1-C in U-937 cells and exogenous MUC1 in HeLa cells
In the case of B4, the binding result in assay [6] and in assay [7] was “binds” in each case.
